In patent US11066655B2, “RNA polymerase, methods of purification and methods of use” (President and Fellows of Harvard College, priority 2013, dated 2021):

What was measured:
Type in all cases: biochemical
[1] = system: DNA templates with Syn5 promoter; assay: Gel assay of transcription products with MgCl2, FeCl2 or MnCl2 as cofactor
Experimental: FIG. 6 depicts a comparison of Syn5 RNAP transcription products in the presence of MgCl2, FeCl2 or MnCl2 on denaturing gels. Reactions contained 200 µM ATP, GTP, UTP and 10 µM[…]-^32P]CTP, 50 nM Syn5 RNAP, DNA templates (1 µM template as shown in FIG. 3A for 71 nt runoff transcript, 4 nM template 3 as shown in FIG. 3C for 225 nt product, or 1 µM template 1 as shown in FIG. 3B for 37 nt runoff transcript).
For the gel assay results shown in FIGS. 1, 2, 3, and 13, reaction mixtures (20 μl) contained 40 mM Tris-HCl (pH 7.9), 6 mM MgCl2, 2 mM spermidine, 10 mM DTT, 200 µM[…]P, GTP and UTP, 10 µM [[…]-^32P]CTP, 1.5 U/µl RNaseOUT™ recombinant ribonuclease inhibitor (Invitrogen), 100 nM Syn5 or T7 RNAP, and DNA templates as described in the figure legends (either 2 nM phage genomic DNA, 4 nM purified PCR products, or 1 µM synthetic dsDNA fragments). Reaction mixtures were incubated at 24° C. for 30 min. The reaction mixtures described in FIG. 6 contained 40 mM Tris-HCl (pH 8.0), 200 µM[…]P, GTP and UTP, 10 µM [[…]-^32P]CTP, 1.5 U/µl RNaseOUT™, 50 nM Syn5 RNAP, DNA templates, and various amounts of MgCl2, FeCl2, MnCl2 and KCl as described in the figure legends. After 30 min incubations at 24° C., one unit of RQ1 RNase-Free DNase (Promega) was added to each reaction mixture and incubated for an additional 20 min at 37° C. to remove the DNA templates. Reactions were then terminated by the addition of 8 µl of loading dye containing 95% formamide and 40 mM EDTA. Samples were then heated at 90° C. for 1 min and loaded onto either 10% or 25% TBE-Urea denaturing gels. After electrophoresis, gels were dried and analyzed using a Fuji BAS 1000 Bioimaging Analyzer.

pUC19-S5P or pUC19-T7P = assay: Processivity gel assay, rolling-circle synthesis on single-promoter plasmids
Experimental: FIGS. 9A-9H depict the processivity of Syn5 and T7 RNA polymerases. A) Agarose gel showing RNA synthesis by previously purified Syn5 RNA polymerase, newly purified Syn5 RNA polymerase with the improved procedure, and T7 RNA polymerase on a plasmid template containing a single cognate promoter (as shown in the schematic). B) Product as shown in A) by S5N2 RNA polymerase was incubated with 1 U/[…]1 RNase I or DNase I to confirm its RNA nature. C) Effect of increasing KCl concentration on Syn5 RNA polymerase transcription. D) Products by Syn5 and T7 RNAP in a rolling-circle manner were analyzed at denaturing condition. E) Same assay as D) except that the template plasmids were linearized as shown in the schematic. F) & G) Decreasing the concentration of T7 (F) and Syn5 (G) RNA polymerase reduced the abortive products due to clash of RNA polymerases at promoter region. H) RNA polymerase promoter distribution on coliphage T7 and cyanophage Syn5 genomes.
DNA templates for transcription assays were either plasmids or dsDNA fragments made of synthesized oligonucleotides. To test the processivity of Syn5 and T7 RNAP, a single Syn5 or T7 promoter plus 3 guanosine downstream of the promoter (Syn5 5′-ATTGGGCACCCGTAAGGG-3′ (SEQ ID NO:1) or T7 5′-[…]-3′) (SEQ ID NO:2) was inserted between the BamHI and XbaI sites of plasmid pUC19 to form pUC19-S5P or pUC19-T7P. The templates for run-off tRNA^Arg synthesis were formed by annealing of two complementary synthesized DNA oligos of which sequences are as following:
For the results shown in FIG. 9, reaction mixtures (10 μl) contained 40 mM Tris-HCl pH 8.0, 6 mM MgCl2, 2 mM spermidine, 10 mM DTT, 600 µM[…]P, GTP, CTP, and UTP, 1.5 U/µl RNaseOUT™ recombinant ribonuclease inhibitor, 0.04 U/µl yeast inorganic pyrophosphatase, 10 nM pUC19-Syn5P3G or pUC19-T7P3G, 10 nM Syn5 or T7 RNAP and various amount of KCl as noted in the figure or described in the figure legend. After 1 hr incubations at RT, one unit of DNase I was added to each reaction mixture and incubated for an additional 15 min at 37° C. to remove the DNA templates. For FIGS. 8A-8C, 2 µl reaction mixture was directly mixed with native loading dye and loaded onto 1.6% TAE agarose gel. For FIGS. 8D-8F, RNA products were purified with RNA Clean & Concentrator™-5 kit into a final solution of 10 µl and 5 µl each was mixed with 5 µl denaturing RNA loading dye (New England Biolabs). Samples were then heated at 65° C. for 5 min and loaded onto 1.6% TAE agarose gel. RNA products were visualized by ethidium bromide staining.

[2] = system: dsDNA template S5PhmttRNAProUGG; assay: Synthesis of human mt tRNAPro, short RNA, optimized conditions

B1: Syn5 RNAP: single subunit DNA-dependent RNA polymerase from marine cyanophage Syn5, amino acid sequence SEQ ID NO:23 (protein)
chain: MSFDLIARQLQRETEAAELARKRLQDARREANERSYASSNIESRKAIATFLDPIAQRIGERLFTLRRGTGAVDAAEVYKHLKNADHHHLALITMKTALDVLGKDPEPQIQQLTTAIGRNIQLELRLTYYAEENPELYKQASRFFHAGTGTRQKATVIKLKFNREGIEWDQWSRVTCHKVGQWLMLAMADVTGWIERATDRTSGGRKTKTRICYSREFLQHRDTILAAAEQLAFCQWPMLCPPIEWSNDHNGGYLSEQIRRVNPLIRKTGPLGTRKQGDIPLAMLNNLQGQAYKVNPEVLDIANHCYESNVTVGKFIRHAPLPVPPSPGEDCTEDQLTAYKRARREAEDFNAQISQKNWRTTEVMYVARKYADEASFWMPASFDYRGRVYFLNTALNPQGTDFDKALLYFAEEGPVNEWWLSFHVATTYGLDKETMVNRVQWARDNHELIDRIASDPVRHTEWHDADEPWCFLAACLEYKACVIDGTKQTSGLPIGIDATCSGLQHLAAMTRCGRTAALVNVTPTDKPADAYKTVAQASLKHLPKEQHEWITRKVTKRPVMCTPYGVTMSSARGYIRDQLVKDGHKEDLRSPGVLNGIVKAIFNEAIPEVIPGPVQVMAWLKRSAGQIIDRGDSTITWTTPSGFEVVQDLKKSKTYEVKTRIMGGARIKLQVGDGFTDEPDRDHHKSALAPNVVHSNDASLLHLTFAFWDKPFTVIHDCVLGRSCDMDQMGSDIRLHFAEMYKADVMQDWADQVGVELPVDLIKNTLDIDSVNQSLYFFS
modifications: Amino acid sequence of a cyanophage Syn5 RNAP
transcription with ferrous as cofactor ([1]; 2 mM FeCl2): produce a 71 nt runoff transcript identical to that produced in the presence of MgCl2
longer transcripts (e.g. 225 nt) in the presence of iron ([1]; FeCl2): did not produce longer transcripts
maximum yield of short runoff products ([1]; manganese 0.25 to 1 mM versus magnesium): higher in the presence of manganese
N+1 runoff product ([1]; manganese versus magnesium): significantly higher with manganese than that with magnesium
efficiency of iron as a cofactor ([1]; versus magnesium): several times less than that of magnesium
apparent processivity (pUC19-S5P or pUC19-T7P): over 30 kilo nucleotides
processivity (pUC19-S5P or pUC19-T7P): greater than 30,000 nt
length approached by some products (pUC19-S5P or pUC19-T7P; low enzyme concentration): ~30 kilo nt
length of most products (pUC19-S5P or pUC19-T7P; low enzyme concentration): over 9 kilo nt
estimated yield of RNA ([2]; 100 µl transcription reaction): 4 nmole/100 µl
enzyme activity ([2]; at 42° C.): very low
reduction of yield ([2]; final NTP 4 mM instead of 8 mM): approximately 20%
